pKd: −log10 of the molar value.

The source of these data is paper PMC9869178.

For this test, the target named is recombinant RIIα subunit of PKA, fluorescein 5-maleimide-labelled (UniProt P13861). The test is described as follows: other fluorescence titration.
recombinant RIIα subunit of PKA, fluorescein 5-maleimide-labelled, sequence (P13861 2-404): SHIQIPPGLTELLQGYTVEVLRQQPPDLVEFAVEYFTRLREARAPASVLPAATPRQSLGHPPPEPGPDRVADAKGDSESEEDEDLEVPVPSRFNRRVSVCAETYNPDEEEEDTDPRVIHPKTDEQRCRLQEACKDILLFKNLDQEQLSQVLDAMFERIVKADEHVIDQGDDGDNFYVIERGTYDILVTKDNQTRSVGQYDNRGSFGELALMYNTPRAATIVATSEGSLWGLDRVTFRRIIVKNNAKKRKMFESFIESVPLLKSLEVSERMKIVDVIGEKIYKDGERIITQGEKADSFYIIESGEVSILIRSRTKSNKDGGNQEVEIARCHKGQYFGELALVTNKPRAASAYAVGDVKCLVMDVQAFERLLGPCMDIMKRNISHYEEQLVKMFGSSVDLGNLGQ

Broadly, the pKd is the negative decadic logarithm of the Kd, by convention in mol/L. Consider “PI3Kγ mimetic peptide (PI3Kγ MP) (from UniProt P48736 126-150)”, for which the pKd was 5.12.
